# Assays:
# Assay in all cases: cell-based or functional assay
# FRETS-VWF73 substrate = FRETS-VWF73 substrate (UniProt P04275)
# [1] = target: von Willebrand factor (VWF), substrate of the in vitro cleavage of Table 1 (UniProt P04275)
# [2] = target: recombinant VWF (full-length, multimeric rVWF) (UniProt P04275)
substance,measurement,setting,value
rADAMTS13 batches composed of a mixture of wildtype rADAMTS13 and Q97R variant,"specific activity U/mg (UV); Sample 1, 59 % Q97R",FRETS-VWF73 substrate,1640 U/mg (UV)
same,"specific activity U/mg (UV); Sample 2, 64 % Q97R",FRETS-VWF73 substrate,1580 U/mg (UV)
same,"specific activity U/mg (UV); Sample 3, 59 % Q97R",FRETS-VWF73 substrate,1400 U/mg (UV)
same,"specific activity U/mg (UV); Sample 4, 56 % Q97R",FRETS-VWF73 substrate,1460 U/mg (UV)
same,"specific activity U/mg (UV); Sample 5, 55 % Q97R",FRETS-VWF73 substrate,1360 U/mg (UV)
same,"specific activity U/mg (UV); Sample 6, 64 % Q97R",FRETS-VWF73 substrate,1470 U/mg (UV)
same,"specific activity U/mg (UV); Sample 7, 66 % Q97R",FRETS-VWF73 substrate,2040 U/mg (UV)
same,"specific activity U/mg (UV); Sample 8, 70 % Q97R",FRETS-VWF73 substrate,1610 U/mg (UV)
same,"specific activity U/mg (UV); Sample 9, 67 % Q97R",FRETS-VWF73 substrate,1480 U/mg (UV)
same,"specific activity U/mg (UV); Sample 10, 67 % Q97R",FRETS-VWF73 substrate,1450 U/mg (UV)
same,"specific activity U/mg (UV); Sample 11, 60 % Q97R",FRETS-VWF73 substrate,1580 U/mg (UV)
same,"specific activity U/mg (UV); Sample 12, 60 % Q97R",FRETS-VWF73 substrate,1620 U/mg (UV)
same,"specific activity U/mg (UV); Sample 13, 71 % Q97R",FRETS-VWF73 substrate,1970 U/mg (UV)
same,"specific activity U/mg (UV); Sample 14, 59 % Q97R",FRETS-VWF73 substrate,1390 U/mg (UV)
same,"specific activity U/mg (UV); Sample 15, 52 % Q97R",FRETS-VWF73 substrate,1330 U/mg (UV)
same,"specific activity U/mg (UV); Sample 16, 57 % Q97R",FRETS-VWF73 substrate,1410 U/mg (UV)
same,"specific activity U/mg (UV); Sample 17, 61 % Q97R",FRETS-VWF73 substrate,1380 U/mg (UV)
same,"specific activity U/mg (UV); Sample 18, 63 % Q97R",FRETS-VWF73 substrate,1440 U/mg (UV)
same,"specific activity U/mg (UV); Sample 19, 54 % Q97R",FRETS-VWF73 substrate,1660 U/mg (UV)
same,"specific activity U/mg (UV); Sample 20, 64 % Q97R",FRETS-VWF73 substrate,1700 U/mg (UV)
same,"specific activity U/mg (UV); Sample 21, 64 % Q97R",FRETS-VWF73 substrate,1690 U/mg (UV)
same,"specific activity U/mg (UV); Sample 22, 66 % Q97R",FRETS-VWF73 substrate,1620 U/mg (UV)
same,"specific activity U/mg (UV); Sample 23, 61 % Q97R",FRETS-VWF73 substrate,1540 U/mg (UV)
same,"specific activity U/mg (UV); Sample 24, 62 % Q97R",FRETS-VWF73 substrate,1510 U/mg (UV)
same,"specific activity U/mg (UV); Sample 25, 61 % Q97R",FRETS-VWF73 substrate,1530 U/mg (UV)
same,"specific activity U/mg (UV); Sample 26, 61 % Q97R",FRETS-VWF73 substrate,1760 U/mg (UV)
same,"specific activity U/mg (UV); Sample 27, 59 % Q97R",FRETS-VWF73 substrate,1860 U/mg (UV)
same,"specific activity U/mg (UV); Sample 28, 60 % Q97R",FRETS-VWF73 substrate,1750 U/mg (UV)
same,"specific activity U/mg (UV); Sample 29, 55 % Q97R",FRETS-VWF73 substrate,1730 U/mg (UV)
same,"specific activity U/mg (UV); Sample 30, 60 % Q97R",FRETS-VWF73 substrate,1850 U/mg (UV)
same,"specific activity U/mg (UV); Sample 31, 64 % Q97R",FRETS-VWF73 substrate,1800 U/mg (UV)
same,"specific activity U/mg (UV); Sample 32, 60 % Q97R",FRETS-VWF73 substrate,1750 U/mg (UV)
same,"specific activity U/mg (UV); Sample 33, 65 % Q97R",FRETS-VWF73 substrate,1620 U/mg (UV)
same,"specific activity U/mg (UV); Sample 34, 61 % Q97R",FRETS-VWF73 substrate,1720 U/mg (UV)
same,"specific activity U/mg (UV); Sample 35, 72 % Q97R",FRETS-VWF73 substrate,1650 U/mg (UV)
same,"IU VWF RCo/ml left; ADAMTS13 0.1 U/ml, 0 h (IU VWF RCo/ml)",[1],0.72
same,"IU VWF RCo/ml left; ADAMTS13 0.1 U/ml, 15 seconds (IU VWF RCo/ml)",[1],0.33
same,"IU VWF RCo/ml left; ADAMTS13 0.1 U/ml, 30 seconds (IU VWF RCo/ml)",[1],0.34
same,"IU VWF RCo/ml left; ADAMTS13 0.1 U/ml, 1 minute (IU VWF RCo/ml)",[1],0.3
same,"IU VWF RCo/ml left; ADAMTS13 0.1 U/ml, 2 minutes (IU VWF RCo/ml)",[1],0.24
same,"IU VWF RCo/ml left; ADAMTS13 0.1 U/ml, 5 minutes (IU VWF RCo/ml)",[1],< 0.17
same,"IU VWF RCo/ml left; ADAMTS13 0.5 U/ml, 0 h (IU VWF RCo/ml)",[1],0.78
same,"IU VWF RCo/ml left; ADAMTS13 0.5 U/ml, 15 seconds (IU VWF RCo/ml)",[1],< 0.17
same,"IU VWF RCo/ml left; ADAMTS13 0.5 U/ml, 30 seconds (IU VWF RCo/ml)",[1],< 0.17
same,"IU VWF RCo/ml left; ADAMTS13 0.5 U/ml, 1 minute (IU VWF RCo/ml)",[1],< 0.17
same,"IU VWF RCo/ml left; ADAMTS13 0.5 U/ml, 2 minutes (IU VWF RCo/ml)",[1],< 0.17
same,"IU VWF RCo/ml left; ADAMTS13 0.5 U/ml, 5 minutes (IU VWF RCo/ml)",[1],< 0.17
same,"IU VWF RCo/ml left; ADAMTS13 1.0 U/ml, 0 h (IU VWF RCo/ml)",[1],0.56
same,"IU VWF RCo/ml left; ADAMTS13 1.0 U/ml, 15 seconds (IU VWF RCo/ml)",[1],< 0.17
same,"IU VWF RCo/ml left; ADAMTS13 1.0 U/ml, 30 seconds (IU VWF RCo/ml)",[1],< 0.17
same,"IU VWF RCo/ml left; ADAMTS13 1.0 U/ml, 1 minute (IU VWF RCo/ml)",[1],< 0.17
same,"IU VWF RCo/ml left; ADAMTS13 1.0 U/ml, 2 minutes (IU VWF RCo/ml)",[1],< 0.17
same,"IU VWF RCo/ml left; ADAMTS13 1.0 U/ml, 5 minutes (IU VWF RCo/ml)",[1],< 0.17
same,"cleavage of multimeric rVWF [%]; Sample 1, 59 % Q97R",[2],58%
same,"cleavage of multimeric rVWF [%]; Sample 2, 64 % Q97R",[2],52%
same,"cleavage of multimeric rVWF [%]; Sample 3, 59 % Q97R",[2],51%
same,"cleavage of multimeric rVWF [%]; Sample 4, 56 % Q97R",[2],60%
same,"cleavage of multimeric rVWF [%]; Sample 5, 55 % Q97R",[2],52%
same,"cleavage of multimeric rVWF [%]; Sample 6, 64 % Q97R",[2],57%
same,"cleavage of multimeric rVWF [%]; Sample 7, 66 % Q97R",[2],62%
same,"cleavage of multimeric rVWF [%]; Sample 9, 67 % Q97R",[2],62%
same,"cleavage of multimeric rVWF [%]; Sample 10, 67 % Q97R",[2],60%
same,"cleavage of multimeric rVWF [%]; Sample 11, 60 % Q97R",[2],61%
same,"cleavage of multimeric rVWF [%]; Sample 12, 60 % Q97R",[2],59%
same,"cleavage of multimeric rVWF [%]; Sample 13, 71 % Q97R",[2],60%
same,"cleavage of multimeric rVWF [%]; Sample 14, 59 % Q97R",[2],55%
same,"cleavage of multimeric rVWF [%]; Sample 15, 52 % Q97R",[2],59%
same,"cleavage of multimeric rVWF [%]; Sample 16, 57 % Q97R",[2],66%
same,"cleavage of multimeric rVWF [%]; Sample 17, 61 % Q97R",[2],58%
same,"cleavage of multimeric rVWF [%]; Sample 18, 63 % Q97R",[2],55%
same,"cleavage of multimeric rVWF [%]; Sample 19, 54 % Q97R",[2],78%
same,"cleavage of multimeric rVWF [%]; Sample 20, 64 % Q97R",[2],78%
same,"cleavage of multimeric rVWF [%]; Sample 21, 64 % Q97R",[2],75%
same,"cleavage of multimeric rVWF [%]; Sample 22, 66 % Q97R",[2],65%
same,"cleavage of multimeric rVWF [%]; Sample 23, 61 % Q97R",[2],66%
same,"cleavage of multimeric rVWF [%]; Sample 24, 62 % Q97R",[2],63%
same,"cleavage of multimeric rVWF [%]; Sample 25, 61 % Q97R",[2],63%
same,"cleavage of multimeric rVWF [%]; Sample 26, 61 % Q97R",[2],67%
same,"cleavage of multimeric rVWF [%]; Sample 27, 59 % Q97R",[2],67%
same,"cleavage of multimeric rVWF [%]; Sample 28, 60 % Q97R",[2],67%
same,"cleavage of multimeric rVWF [%]; Sample 29, 55 % Q97R",[2],68%
same,"cleavage of multimeric rVWF [%]; Sample 30, 60 % Q97R",[2],67%
same,"cleavage of multimeric rVWF [%]; Sample 31, 64 % Q97R",[2],71%
same,"cleavage of multimeric rVWF [%]; Sample 32, 60 % Q97R",[2],62%
same,"cleavage of multimeric rVWF [%]; Sample 33, 65 % Q97R",[2],78%
same,"cleavage of multimeric rVWF [%]; Sample 34, 61 % Q97R",[2],65%
same,"cleavage of multimeric rVWF [%]; Sample 35, 72 % Q97R",[2],66%
